Experimental data: the supplement of paper PMC10724198
± gives the standard deviation of the averaged measurements.

Tested on: Saccharomyces cerevisiae
Assay: protein stability index of tFT-peptide fusion (C-terminal peptide) (PSI (0-1 scale)); higher = more stable (slower turnover)
Conditions: temperature: 30 C
Description: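 MPS profiling in S. cerevisiae of the yeast C-terminome library: the last 12 aa of each annotated ORF are fused to the C-terminus of a sfGFP-mCherry timer, after a GGGS linker. Cells are FACS-sorted into 8 mCherry/sfGFP bins and deep-sequenced. PSI runs from 0 (unstable) to 1 (stable); wild type and das1Δ backgrounds, two technical replicates each.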

[1] = genetic background: das1 deletion

Sequence	protein stability index [1]	protein stability index (genetic background: wild type)
TILHQQVNSKLH [YHR180W C-terminal 12 aa]	0.7181 ± 0.00078	0.627 ± 0.02
TILLFYPPLLKR [YDR544C C-terminal 12 aa]	0.627 ± 0.0074	0.6119 ± 0.0047
TIPAAKRTKPSA [LYS20 C-terminal 12 aa]	0.69801 ± 0.00025	0.703 ± 0.014
TKCSLKNSISLT [VAB2 C-terminal 12 aa]	0.677 ± 0.012	0.733 ± 0.086
TKEAKRRAMKKK [UME6 C-terminal 12 aa]	0.706 ± 0.028	0.677 ± 0.013
TKKANILDPDYL [FLC1 C-terminal 12 aa]	0.685 ± 0.023	0.728 ± 0.032
TKLGEQRHLCTD [ESL2 C-terminal 12 aa]	0.698 ± 0.019	0.7 ± 0.013
TKPNNGLNITNY [MTL1 C-terminal 12 aa]	0.689 ± 0.019	0.716 ± 0.046
TKSIFPSVNPSA [GPB2 C-terminal 12 aa]	0.694 ± 0.02	0.669 ± 0.019
TLDRASNCWRGT [YBL006W-A C-terminal 12 aa]	0.709 ± 0.016	0.714 ± 0.062
TLHDDRESKSED [CMK2 C-terminal 12 aa]	0.6829 ± 0.0059	0.694 ± 0.036
TLIAAGIIRTGR [STI1 C-terminal 12 aa]	0.727 ± 0.025	0.702 ± 0.016
TLKSTSSTNSPD [SMP1 C-terminal 12 aa]	0.703 ± 0.011	0.6844 ± 0.006
TLVFDVELLKVN [FPR1 C-terminal 12 aa]	0.6084 ± 0.0029	0.251 ± 0.033
TMNCNNADDMLF [YGR190C C-terminal 12 aa]	0.6995 ± 0.004	0.677 ± 0.022
TNVGLKLIAIAK [PPM2 C-terminal 12 aa]	0.655 ± 0.034	0.649 ± 0.017
TNVQANSYRKVP [SDP1 C-terminal 12 aa]	0.6856 ± 0.0029	0.522 ± 0.054
TPGGGGFGQYKD [OXP1 C-terminal 12 aa]	0.7088 ± 0.00061	0.677 ± 0.03
TPLGPKPDIRPL [ECM4 C-terminal 12 aa]	0.727 ± 0.03	0.67 ± 0.016
TPSKEINFDDDF [RNR4 C-terminal 12 aa]	0.72 ± 0.011	0.723 ± 0.041
TQLRYTSRGLYR [ECM30 C-terminal 12 aa]	0.699 ± 0.018	0.689 ± 0.023

Sequence	protein stability index [1]	protein stability index (genetic background: wild type)
TQSGDDYTIRLT [APM1 C-terminal 12 aa]	0.703 ± 0.015	0.698 ± 0.014
TRPPCSPIAGYA [YOR345C C-terminal 12 aa]	0.608 ± 0.017	0.628 ± 0.012
TSCNLNSSVVRS [YOR186C-A C-terminal 12 aa]	0.708 ± 0.035	0.695 ± 0.0014
TSPKESFFKEVI [LPX2 C-terminal 12 aa]	0.715 ± 0.03	0.711 ± 0.022
TTPTLPTFRTVA [FKS3 C-terminal 12 aa]	0.686 ± 0.018	0.6971 ± 0.0014
TTTGDKKSEEKQ [TCB2 C-terminal 12 aa]	0.685 ± 0.027	0.69 ± 0.032
TYFSFHILFHNL [YOR309C C-terminal 12 aa]	0.614 ± 0.0097	0.221 ± 0.013
TYQLIEKNRNSK [BLS1 C-terminal 12 aa]	0.692 ± 0.019	0.678 ± 0.01
VAAGVFIEHDEL [YOS9 C-terminal 12 aa]	0.723 ± 0.0098	0.702 ± 0.013
VASSTEQLLQEM [DYN1 C-terminal 12 aa]	0.67372 ± 0.00052	0.693 ± 0.029
VATADIKNEDKN [BNA2 C-terminal 12 aa]	0.671 ± 0.021	0.731 ± 0.066
VDAKIKKQMNRH [YJR124C C-terminal 12 aa]	0.694 ± 0.011	0.682 ± 0.0093
VDYKTEPLQPLI [RGI2 C-terminal 12 aa]	0.7 ± 0.022	0.678 ± 0.0079
VEGKNAAASGSA [LEU4 C-terminal 12 aa]	0.7086 ± 0.0054	0.682 ± 0.013
VEKDLVSVGSTW [NAR1 C-terminal 12 aa]	0.676 ± 0.0024	0.7073 ± 0.0067
VEKVKKFVEENN [YML108W C-terminal 12 aa]	0.678 ± 0.007	0.651 ± 0.069
VELYENQSHMQN [CDC9 C-terminal 12 aa]	0.701 ± 0.01	0.678 ± 0.074
VEVLENLQSVLK [ATP16 C-terminal 12 aa]	0.68 ± 0.013	0.7134 ± 0.0029
VGGIDYIKEFLS [CDA2 C-terminal 12 aa]	0.7012 ± 0.0019	0.264 ± 0.0041
VGLLTAIIMSIM [PST1 C-terminal 12 aa]	0.576 ± 0.011	0.529 ± 0.021
VGVERLLNDRFR [ARP4 C-terminal 12 aa]	0.6944 ± 0.0026	0.695 ± 0.028

Sequence	protein stability index [1]	protein stability index (genetic background: wild type)
VKKSNWSNYFKS [PCL2 C-terminal 12 aa]	0.6868 ± 0.0023	0.682 ± 0.033
VKKYSMKKKKKR [YDR320W-B C-terminal 12 aa]	0.671 ± 0.014	0.62 ± 0.0065
VKNWSKSILGFN [MSC1 C-terminal 12 aa]	0.7095 ± 0.004	0.666 ± 0.021
VLGDCQHVTSLL [HST4 C-terminal 12 aa]	0.697 ± 0.015	0.7204 ± 0.0067
VLREEVKKEEEN [KRS1 C-terminal 12 aa]	0.6913 ± 0.006	0.7 ± 0.025
VLVFSWRHIFCF [YJL120W C-terminal 12 aa]	0.467 ± 0.026	0.179 ± 0.0033
VNLDVTEDDKQK [STE20 C-terminal 12 aa]	0.6857 ± 0.0021	0.67 ± 0.04
VNPKAKRPSNEK [NOP2 C-terminal 12 aa]	0.712 ± 0.044	0.754 ± 0.042
VNRQLEMDLPIE [YKL066W C-terminal 12 aa]	0.7074 ± 0.0056	0.712 ± 0.042
VPLGPKPDISRL [GTO1 C-terminal 12 aa]	0.7047 ± 0.0045	0.712 ± 0.041
VPNDNNEQRSSQ [SAN1 C-terminal 12 aa]	0.7041 ± 0.0064	0.662 ± 0.011
VPRFKDIFDDLS [DOA1 C-terminal 12 aa]	0.7313 ± 0.0058	0.719 ± 0.0078
VQCVCFNVEMRL [YIL046W-A C-terminal 12 aa]	0.662 ± 0.015	0.676 ± 0.091
VQHDPSVHTNQL [MAE1 C-terminal 12 aa]	0.6923 ± 0.0028	0.664 ± 0.029
VQNWKPKPFGVL [LAS1 C-terminal 12 aa]	0.707 ± 0.015	0.737 ± 0.059
VRDHFGVINSIW [YJL070C C-terminal 12 aa]	0.715 ± 0.051	0.694 ± 0.011
VRKDYIALINQY [ADI1 C-terminal 12 aa]	0.6715 ± 0.0042	0.652 ± 0.01
VRQVEEDENYDD [CYC8 C-terminal 12 aa]	0.7 ± 0.024	0.748 ± 0.076
VRYVIIHRHTST [RMD8 C-terminal 12 aa]	0.648 ± 0.0073	0.599 ± 0.0066
